Experiment [1] addresses EBV gH/gL/gp42 heterotrimer (recombinant protein) (Epstein-Barr virus) (UniProt P03231). As to the kind of experiment: BLI cross-competition; gH/gL/gp42 on the biosensor pre-saturated with primary mAb F2-1, then binding of this secondary mAb measured (self pair); high value = secondary blocked.
Experiment [2] shares this target. Nature of the experiment: BLI cross-competition; gH/gL/gp42 on the biosensor pre-saturated with primary mAb 4C12, then binding of this secondary mAb measured; high value = secondary blocked.
Experiment [3] has as its target Epstein-Barr virus glycoprotein 42 (gp42) (Epstein-Barr virus) (UniProt P03205). Nature of the experiment: cell-based or functional assay.
Experiment [4] deals with EBV gH/gL/gp42 heterotrimer (recombinant protein) (Epstein-Barr virus) (UniProt P03231). Nature of the experiment: BLI cross-competition; gH/gL/gp42 on the biosensor pre-saturated with primary mAb A10, then binding of this secondary mAb measured; high value = secondary blocked.
Experiment [5] concerns the target T1, EBV gH/gL/gp42 heterotrimer (recombinant protein) (Epstein-Barr virus, UniProt P03231 19-679; P03212 23-137).
T1 construct: Recombinant complex; also called gH/gL/gh42
As to the kind of experiment: BLI, gH/gL/gp42 on the biosensor, dilution series of Fab (legend box shows 5.00E-07), 300 s association, dissociation to 1200 s. In general terms: In BLI a coated tip is dipped into the sample, and binding shifts an interference pattern.

For experiment [6], the target named is T2, Epstein-Barr virus glycoprotein 42 (gp42) (Epstein-Barr virus, UniProt P03205 34-223, limits assumed).
T2 sequence: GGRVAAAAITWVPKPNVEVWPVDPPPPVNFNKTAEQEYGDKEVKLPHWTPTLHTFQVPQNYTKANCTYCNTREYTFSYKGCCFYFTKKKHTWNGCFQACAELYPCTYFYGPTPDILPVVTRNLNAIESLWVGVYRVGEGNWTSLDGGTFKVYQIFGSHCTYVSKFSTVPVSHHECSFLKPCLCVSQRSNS
Nature of the experiment: cell-based or functional assay.

Experiment [7] concerns the target T2, Epstein-Barr virus glycoprotein 42 …. Nature of the experiment: cell-based or functional assay. The source holds these as a separate data set.
The target is the same in experiment [8]. Nature of the experiment: cell-based or functional assay. This is another data set of the same source.
Experiment [9] deals with T1, EBV gH/gL/gp42 heterotrimer …. As to the kind of experiment: BLI (Octet RED96e), biotinylated gH/gL/gp42 on streptavidin biosensors, Fab dilution series, 1:1 global fit.

Here are results for four molecules from patent US20230348568A1 (US Dept. of Health and Human Services, published 2023).

Turning to “F2-1 monoclonal antibody (previously described murine anti-gp42 antibody)”, the figures for the cross-competition (name or unit not given) in experiment [1], in experiment [2] and in experiment [4] were 95.4, 8.9 and 100, respectively. Further, in experiment [3], the IC50 titer to block glycoprotein-mediated B cell fusion stood at 111 µg/mL. This molecule showed an IC50 titer to neutralize EBV infection in B cells in [3] of 0.584 µg/mL.

B1: 4C12 Fab (Fab, V domains shown)
VH: EVQLQQSGPELVKPGASVKISCKASGYTFTDYNMHWVKQSHGKNLEWIGFIYLYNGGTGYNQNFKSKATLTVDNSSSTAYMELRSLTSEDSAVFYCARDYYGNPYAMDYWGQGTSVTVSS
VL: DIQMTQTTSSLSASLGDRVTISCRASQDISNYLNWYQQKPDGTVKLLIYYTSRLRSGVPSRFSGSGSGTDYSLTINNLEQEDIATYFCQQGNTLPFTFGSGTKLEIK
notes: Fab of mAb 4C12; how the Fab was made is not described
In general, Kd refers to the constant that tells how readily two partners part at equilibrium. With B1, in [5], the dissociation constant (Kd) worked out at 57.9 nM.

B2: A10 monoclonal antibody (cynomolgus monkey variable regions on human IgG1 constant region) (antibody, V domains shown)
VH: QVQLQESGPGLVKPSQTLSLTCAISGDSVSSNSATWNWIRQSPSRGLEWLGRTYYRSKWYYDYAQSVQNRISINPDTSKNQFSLQLNSVTPEDMAVYYCARGDFDAFDFWGQGLRVTVSS
VL: SYELTQPPSVSAASGQTARITCGGDNIGSKNVQWYQQKPAQAPVLVIYADSKRPSGVPERFSGSNSGNTATLTISGVEAGDEADYYCQVWDRSSNIFGVGTRLTVLG
As to B2, in [6], the “effectiveness in blocking B cell fusion relative to F2-1” value was roughly 50 fold and the “neutralization potency relative to F2-1” value is roughly 14 fold. In experiment [7], the “IC50 titer to block glycoprotein-mediated B cell fusion” value is 2.41 µg/mL. Further, the “IC50 titer to neutralize EBV infection in B cells” value in [8] was 0.0391 µg/mL.

B3: A10 Fab (Fab, V domains shown)
VH: B2 VH
VL: B2 VL
notes: Fab of A10
The koff is the rate constant with which the complex falls apart. The term kon denotes a measure of how fast the partners come together. Turning to B3, in experiment [9], the Kd stood at 0.149 nM, the dissociation rate constant (koff) came to 0.000227 s⁻¹ and the on-rate constant (kon) was determined as 1.54e+06 M⁻¹ s⁻¹. Further, the “IC50 titer to block glycoprotein-mediated B cell fusion” value in experiment [7] was found to be 1.73 µg/mL.
